Numbering of substitutions follows the chain as printed.
Legend:
[1] = target: T1, mouse CD137 (recombinant, ForteBio Octet) (mouse, UniProt P20334 24-187, limits assumed); assay: ForteBio Octet (BLI) as described in Example 2
T1 construct: also called murine CD137
T1 sequence (looked up): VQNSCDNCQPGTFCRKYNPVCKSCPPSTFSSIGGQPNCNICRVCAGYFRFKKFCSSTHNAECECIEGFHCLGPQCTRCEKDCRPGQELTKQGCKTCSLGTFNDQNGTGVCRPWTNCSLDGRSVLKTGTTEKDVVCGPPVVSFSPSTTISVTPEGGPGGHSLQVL
Description: Affinity of the CD137 antibodies was determined by measuring their kinetic constants (kₐ, kd, KD) on ForteBio Octet. ForteBio affinity measurements were performed generally as previously described (Estep et al., MAbs. 2013 5(2):270-8). Briefly, ForteBio affinity measurements were performed by loading antibodies (IgGs) on-line onto AHQ sensors. Sensors were equilibrated off-line in assay buffer for 30 minutes and then monitored on-line for 60 seconds for baseline establishment. For avid binding measurement, sensors with loaded IgGs were exposed to 100 nM antigen (human, cyno, or murine CD137) for 3 minutes, afterwards they were transferred to assay buffer for 3 minutes for off-rate measurement. Monovalent binding measurements were obtained by loading human CD137-Fc fusion on AHQ sensors followed by exposure to 200 nM antibody Fab in solution. Kinetics data were fit using a 1:1 binding model in the data analysis software provided by ForteBio (data not shown).

[2] = target: T2, purified recombinant his tagged human CD137 (human, UniProt Q07011 24-186); assay: Carterra MX96 SPRi; antibody printed on chip, his tagged human CD137 injected
T2 construct: not shown: his tag
Description: The resulting anti-CD137 antibodies from different selection rounds were plotted on kd/kₐ double log plots. Apparent association and dissociation kinetic rate constants (kₐ and kd values) were determined on an SPRi reader (MX96, Carterra) in a running buffer of PBS-T 0.01%. Anti-human CD137 antibodies were covalently printed on a Carboxymethyldextran hydrogel 50 L chip (Xantec bioanalytics) on a CFM (Carterra). Freshly mixed activating reagents (150 […] 0.1 M sulfo-NHS in H2O) were used to activate the surface of the SPR substrate for 7 minutes. Antibodies at 10 mg/ml in acetic acid buffer pH 4.5 were used for printing for 15 minutes. The printed chip was then quenched on SPRi reader (MX96, Carterra) with 1 M ethanolamine for 15 minutes. For kinetics analysis, purified recombinant his tagged human CD137 (0, 2.05, 5.12, 12.8, 32, 80, 200, 500 nM) was injected sequentially. For each concentration, there was 5 minutes of association followed by 10 minutes of dissociation. Data were processed and analyzed in SPR Inspection Tool and Scrubber softwares. The kinetic data were referenced with the interstitial reference spots and double-referenced to a buffer cycle, and then fit globally to a 1:1 binding model to determine their apparent association and dissociation kinetic rate constants (kₐ and kd values). The ratio kd/kₐ was used to derive the KD value of each antigen/mAb interaction, i.e. KD=kd/kₐ.

[3] = target: T3, human CD137 (recombinant, construct not stated) (human, UniProt Q07011 24-186); assay: Wasatch SPR kinetics, human CD137
T3 construct: also called huCD137; 4-1BB

[4] = target: T4, mouse CD137 (equilibrium cell-binding assay) (mouse, UniProt P20334 24-256); assay: equilibrium cell-binding assay, mouse CD137
T4 construct: whole, on cells; The cells are not described; also called mCD137
T4 sequence (looked up): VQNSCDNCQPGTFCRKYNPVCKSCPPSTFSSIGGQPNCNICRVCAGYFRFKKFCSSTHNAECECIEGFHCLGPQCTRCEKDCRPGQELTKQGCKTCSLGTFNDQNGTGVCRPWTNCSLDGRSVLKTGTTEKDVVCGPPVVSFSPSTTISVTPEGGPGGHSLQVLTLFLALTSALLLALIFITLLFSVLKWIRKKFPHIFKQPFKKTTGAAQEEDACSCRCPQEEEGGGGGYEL

[5] = target: T5, Fc-, mouse IgG2a-, or His-tagged human CD137 (human, UniProt Q07011 24-186); assay: BLI Octet HTX; tagged CD137 on biosensor, Fab 0-500 nM in solution; global 1:1 fit, apparent KD
T5 construct: Antigens came from ACRO Biosystems, Sino Biological and internal sources; not shown: Fc, mouse IgG2a or His tag
Description: (§1) The anti-CD137 antibodies were further tested for their binding to CD137 from multiple species. Specifically, mAb1, mAb8 and mAb10 were analyzed for binding to human, mouse, cynomolgus and canine CD137. Kinetic experiments were performed on Octet HTX (ForteBio) in kinetics buffer (1×PBS, pH 7.4, 0.1 mg/ml BSA, and 0.002% Tween 20). Fc-, mouse IgG2a-, or His-tagged CD137 (human, mouse, cyno or canine) were loaded for 5 minutes on pre-hydrated biosensors, AHC, AMC or NTA respectively. The sensors were then dipped into Fabs (0, 5.12, 12.8, 32, 80, 200 and 500 nM) for 5 minutes of association, following by 15 minutes of dissociation. Results were analyzed with ForteBio Data Analysis 9.0 and fit globally to a 1:1 binding model to determine the apparent KD. KD for human and mouse CD137 binding were confirmed by using antigens from different sources (ACRO Biosystems, Sino Biological and internal).

[6] = target: T6, Fc-, mouse IgG2a-, or His-tagged mouse CD137 (mouse, UniProt P20334 24-187); assay: as above
T6 construct: Antigens came from ACRO Biosystems, Sino Biological and internal sources; not shown: Fc, mouse IgG2a or His tag
T6 sequence (looked up): T1 sequence (looked up)
Description: as §1

[7] = target: T7, Fc-, mouse IgG2a-, or His-tagged cynomolgus CD137 (cynomolgus, UniProt A9YYE7 24-186); assay: as above
T7 construct: also called cyno CD137; not shown: Fc, mouse IgG2a or His tag
T7 sequence: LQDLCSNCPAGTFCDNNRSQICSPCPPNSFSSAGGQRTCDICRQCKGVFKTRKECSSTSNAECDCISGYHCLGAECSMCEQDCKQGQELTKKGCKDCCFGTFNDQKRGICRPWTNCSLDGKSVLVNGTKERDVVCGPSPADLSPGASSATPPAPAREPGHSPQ
Description: as §1

B1: mAb12 (antibody, IgG4, V domains shown)
VH: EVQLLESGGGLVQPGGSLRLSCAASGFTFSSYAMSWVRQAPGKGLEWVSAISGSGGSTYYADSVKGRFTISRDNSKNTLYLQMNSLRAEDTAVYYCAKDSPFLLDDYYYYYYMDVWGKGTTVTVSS
VL: DIQLTQSPSSLSASVGDRVTITCRASQDIGDWLAWYQQKPGKAPKLLIYKASGLQSGVPSRFSGSGSGTEFTLTISNLQPEDFATYYCQQGNQFPLTFGQGTRLE
A Kd [1] of 25.8 nM and a Kd [2] of 12.1 nM were found for B1 in this work.

B2: mAb1 wild type, reference of the CDRH3 alanine scan (antibody, V domains shown)
VH: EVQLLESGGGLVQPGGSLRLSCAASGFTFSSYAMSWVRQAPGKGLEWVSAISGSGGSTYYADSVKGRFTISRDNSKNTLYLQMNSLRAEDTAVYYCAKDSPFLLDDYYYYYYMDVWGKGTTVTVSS
VL: DIQMTQSPSSVSASVGDRVTITCRASQGISSWLAWYQQKPGKAPKLLIYAASSLQSGVPSRFSGSGSGTDFTLTISSLQPEDFATYYCQQGHLFPITFGGGTKVEIK
notes: The derivatives were cloned into an aglyco-IgG1 expression vector (DID-2600); also called WT KD
A Kd [3] of 1 nM and a Kd [4] of 11 nM were found for B2 in this work.

B3: anti-CD137 mAb8 (antibody, V domains shown)
VH: EVQLLESGGGLVQPGGSLRLSCAASGFTFRNYAMSWVRQAPGKGLEWVSAISGSGDTTYYADSVKGRFTISRDNSKNTLYLQMNSLRAEDTAVYYCAKDSPFLLDDYYYYYYMDVWGKGTTVTVSS
VL: B2 VL
notes: Generated with IgG4 constant regions
A Kd [1] of 72 nM and a Kd [2] of 3.2 nM were found for B3 in this work.

B4: mAb1 Fab (Fab, V domains shown)
VH: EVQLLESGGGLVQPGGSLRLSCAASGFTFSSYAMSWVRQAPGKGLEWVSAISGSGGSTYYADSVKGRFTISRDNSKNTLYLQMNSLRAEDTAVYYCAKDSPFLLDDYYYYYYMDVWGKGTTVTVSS
VL: B2 VL
A Kd [5] of 50 to 70 nM, a Kd [6] of 300 to 500 nM and a Kd [7] of 30 to 100 nM were found for B4 in this work.

B5: mAb1 alanine-substituted derivative M(100I)A (antibody, IgG1, V domains shown)
VH: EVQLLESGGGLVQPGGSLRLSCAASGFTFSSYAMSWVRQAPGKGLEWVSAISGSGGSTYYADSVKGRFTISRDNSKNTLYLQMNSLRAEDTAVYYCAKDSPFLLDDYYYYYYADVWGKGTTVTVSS
VL: B2 VL
notes: aglyco-IgG1 vector (DID-2600)
A Kd [3] of 1.8 nM and a Kd [4] of 21 nM were found for B5 in this work.

B6: mAb1 alanine-substituted derivative D95A (antibody, V domains shown)
VH: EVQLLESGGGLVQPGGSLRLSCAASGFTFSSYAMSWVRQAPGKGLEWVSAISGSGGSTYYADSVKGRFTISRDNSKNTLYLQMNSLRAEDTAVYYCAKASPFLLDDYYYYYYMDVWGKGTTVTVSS
VL: B2 VL
notes: aglyco-IgG1 vector (DID-2600)
B6: no binding [3]; no binding [4].

B7: mAb1 alanine-substituted derivative Y(100H)A (antibody, IgG1, V domains shown)
VH: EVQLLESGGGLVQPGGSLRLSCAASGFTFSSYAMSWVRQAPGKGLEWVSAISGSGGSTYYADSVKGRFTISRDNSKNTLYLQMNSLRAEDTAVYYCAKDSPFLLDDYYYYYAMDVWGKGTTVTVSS
VL: B2 VL
notes: aglyco-IgG1 vector (DID-2600)
B7: no binding [3]; no binding [4].

B8: mAb1 alanine-substituted derivative Y(100C)A (antibody, IgG1, V domains shown)
VH: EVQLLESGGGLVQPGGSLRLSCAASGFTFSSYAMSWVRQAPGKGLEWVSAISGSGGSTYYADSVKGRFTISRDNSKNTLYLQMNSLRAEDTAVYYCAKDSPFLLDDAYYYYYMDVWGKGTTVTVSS
VL: B2 VL
notes: aglyco-IgG1 vector (DID-2600)
A Kd [3] of 1 nM and a Kd [4] of 25 nM were found for B8 in this work.

B9: mAb1 alanine-substituted derivative Y(100G)A (antibody, IgG1, V domains shown)
VH: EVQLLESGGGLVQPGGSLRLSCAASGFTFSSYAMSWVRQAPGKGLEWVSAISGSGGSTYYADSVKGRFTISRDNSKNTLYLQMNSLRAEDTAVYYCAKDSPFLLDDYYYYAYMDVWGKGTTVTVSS
VL: B2 VL
notes: aglyco-IgG1 vector (DID-2600)
B9: no binding [3]; no binding [4].

B10: mAb1 alanine-substituted derivative D(100B)A (antibody, IgG1, V domains shown)
VH: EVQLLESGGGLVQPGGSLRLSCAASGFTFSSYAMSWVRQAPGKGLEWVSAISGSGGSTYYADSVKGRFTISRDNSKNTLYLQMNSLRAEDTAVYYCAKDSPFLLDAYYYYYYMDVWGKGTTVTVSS
VL: B2 VL
notes: aglyco-IgG1 vector (DID-2600)
A Kd [3] of 1.3 nM and a Kd [4] of 54 nM were found for B10 in this work.

B11: anti-CD137 mAb10 (antibody, IgG4, V domains shown)
VH: B3 VH with R30Y, N31G, S49A, T57S
VL: B2 VL
notes: as for B3
A Kd [1] of 8.4 nM and a Kd [2] of 20 nM were found for B11 in this work.

B12: mAb1 alanine-substituted derivative Y(100D)A (antibody, IgG1, V domains shown)
VH: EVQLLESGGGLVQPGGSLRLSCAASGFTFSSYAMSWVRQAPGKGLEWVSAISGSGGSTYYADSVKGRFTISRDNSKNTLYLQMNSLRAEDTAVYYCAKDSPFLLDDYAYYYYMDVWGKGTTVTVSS
VL: B2 VL
notes: aglyco-IgG1 vector (DID-2600)
A Kd [4] of 170 nM was found for B12 in this work.

B13: mAb9 (antibody, IgG4, V domains shown)
VH: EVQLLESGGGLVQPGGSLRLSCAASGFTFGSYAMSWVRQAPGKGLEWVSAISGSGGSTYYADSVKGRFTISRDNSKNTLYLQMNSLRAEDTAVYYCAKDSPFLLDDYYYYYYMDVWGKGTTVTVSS
VL: B2 VL
A Kd [1] of 6.9 nM and a Kd [2] of 41.4 nM were found for B13 in this work.

B14: mAb8 Fab (Fab, V domains shown)
VH: B3 VH
VL: B2 VL
A Kd [5] of 3 to 5 nM, a Kd [6] of 50 to 90 nM and a Kd [7] of 3 to 7 nM were found for B14 in this work.

B15: mAb1 alanine-substituted derivative L100A (antibody, IgG1, V domains shown)
VH: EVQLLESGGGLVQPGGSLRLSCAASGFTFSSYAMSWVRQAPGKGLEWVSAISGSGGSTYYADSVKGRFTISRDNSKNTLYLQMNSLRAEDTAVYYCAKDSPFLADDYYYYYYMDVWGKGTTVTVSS
VL: B2 VL
notes: aglyco-IgG1 vector (DID-2600); Leucine at position 100 is changed to alanine
B15: no binding [3]; no binding [4].

B16: mAb1 alanine-substituted derivative L99A (antibody, IgG1, V domains shown)
VH: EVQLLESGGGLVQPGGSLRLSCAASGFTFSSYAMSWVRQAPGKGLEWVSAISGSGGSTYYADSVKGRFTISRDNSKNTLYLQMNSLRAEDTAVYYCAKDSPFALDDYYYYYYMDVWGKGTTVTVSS
VL: B2 VL
notes: aglyco-IgG1 vector (DID-2600)
A Kd [3] of 2.7 nM and a Kd [4] of 33 nM were found for B16 in this work.

B17: mAb7 (antibody, IgG4, V domains shown)
VH: B3 VH with R30N, N31Y, S52D, T57N, Y59T
VL: B2 VL
A Kd [1] of 1.2 nM and a Kd [2] of 6.8 nM were found for B17 in this work.

B18: mAb10 Fab (Fab, V domains shown)
VH: B3 VH with R30Y, N31G, S49A, T57S
VL: B2 VL
A Kd [5] of 0.9 nM, a Kd [6] of 10 to 30 nM and a Kd [7] of 1.8 nM were found for B18 in this work.

B19: mAb1 alanine-substituted derivative S96A (antibody, IgG1, V domains shown)
VH: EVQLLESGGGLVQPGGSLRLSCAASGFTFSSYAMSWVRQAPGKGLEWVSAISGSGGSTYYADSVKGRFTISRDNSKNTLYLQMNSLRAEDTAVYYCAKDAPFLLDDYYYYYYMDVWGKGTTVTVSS
VL: B2 VL
notes: aglyco-IgG1 vector (DID-2600)
A Kd [3] of 1.8 nM and a Kd [4] of 40 nM were found for B19 in this work.

B20: mAb1 alanine-substituted derivative Y(100E)A (antibody, IgG1, V domains shown)
VH: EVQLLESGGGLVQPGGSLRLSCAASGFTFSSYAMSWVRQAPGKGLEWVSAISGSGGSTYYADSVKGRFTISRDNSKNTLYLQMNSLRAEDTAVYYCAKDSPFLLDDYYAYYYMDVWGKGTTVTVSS
VL: B2 VL
notes: aglyco-IgG1 vector (DID-2600)
B20: no binding [3]; no binding [4].

B21: mAb11 (antibody, IgG4, V domains shown)
VH: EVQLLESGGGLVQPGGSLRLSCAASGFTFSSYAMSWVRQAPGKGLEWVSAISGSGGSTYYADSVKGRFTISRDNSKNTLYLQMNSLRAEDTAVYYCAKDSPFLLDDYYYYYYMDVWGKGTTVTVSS
VL: DIQMTQSPSTLSASVGDRVTITCRASQNIHNWLAWYQQKPGKAPKLLIYKASGLESGVPSRFSGSGSGTEFTLTISSLQPDDFATYYCQQGDRFPLTFGGGTKVEIK
A Kd [1] of 4.8 nM and a Kd [2] of 4.1 nM were found for B21 in this work.

— US20240181050A1 (COMPASS THERAPEUTICS, published 2024)
